US10744088B2, “Method for preparing ophthalmic preparation containing thymosin beta-4” (G-TREEBNT CO., LTD., priority 2015, dated 2020)

Assays:
[1] = Purity analysis of ophthalmic preparations by HPLC; assay type: physicochemical; conditions: after preparation, HPLC UV 205 nm
Method: The purity changes of the ophthalmic preparations prepared in the above Examples and Comparative Examples were analyzed during the period from the initial time after preparation to 12 months later with a high performance liquid chromatography (HPLC), Agilent 1200 instrument under the conditions in Tables 1 and 2, and the results are shown in Table 3.

[2] = Impurity analysis (single maximum impurity, thymosin β4 sulfoxide) by HPLC and LC/MS; assay type: physicochemical; conditions: after preparation; impurity identified as thymosin β4 sulfoxide
Method: The amounts of impurities in the ophthalmic preparations prepared in the above Examples and Comparative Examples were analyzed as following, and the results are shown in Table 3.
Specifically, thymosin β4 sulfoxide was synthesized following the methods in the paper (Eur. J. Biochem. 223, 345-350 (1994), Nature Medicine 5(12), 1424 (1999)). Thymosin β4 sulfoxide is a substance modified from thymosin β4 by oxidation, which causes a change in its pharmacological activity compared to thymosin β4.
The molecular weight of the synthesized thymosin β4 sulfoxide was identified by mass analysis (LC/MS) using the MALDI-TOF MS instrument. The analyzed molecular weight was 4,978.5, which was consistent with the value in the document of 4,980±2.
The ophthalmic preparations prepared in Example 1 and Comparative Examples 1 and 2 and the synthesized thymosin β4 sulfoxide were analyzed by HPLC and LC/MS under the same conditions.

Substance: thymosin β4 acetate [Thymosin β4 (raw material)]
- Purity (%) [1]: 99.3%
- Single maximum impurity (%) [2]: Not detected
